Experiment [1] has as its system human umbilical vein endothelial cells (HUVECs). Nature of the experiment: In vitro human endothelial cell angiogenesis assay (capillary tube formation on ECMATRIX). The format is cell-based. An excerpt:
The angiogenesis assay is commercially available from Chemicon International, Inc. (Temecula, Calif.), and involves growing human umbilical vein endothelial cells (HUVECs) on a proprietary matrix, followed by assessing angiogenesis on this matrix by counting new branch points in sprouting endothelial cells.
A semi-quantitative assay for in vitro angiogenesis was utilized. Human umbilical vein endothelial cells (HUVEC, Clonetics Corp., Walkersville, Md.) were maintained in 25 cm^2 flasks in EGM-2 media (Clonetics Corp.) supplemented with 2% fetal bovine serum, gentamicin, amphotericin-B, hEGF, hydrocortisone, VEGF, hFGF-B, R^3-IGF-1, ascorbic acid and heparin. For assay, a 48-well tissue culture plate was coated with 100 μl of ECMATRIX (Chemicon International, Inc., Temecula, Calif.) followed by incubation at 37° C. for one hour. Approximately 5×10^4 cells were then seeded onto the surface of the polymerized matrix. Varying concentrations of full-length human TFPI-2, diluted in EGM-2 media and filtered, were added to the wells and plate was placed in 37° C.-humidified CO2 incubator. Each treatment was performed in duplicate wells. Separately, VEGF was used as a positive control. The three-dimensional organization of cells was examined every hour under an inverted photomicroscope. The capillary tube branch point formation was counted in each well following eight hours of incubation. For each concentration, eight randomly chosen areas under 250× magnified field were observed. The results are expressed as number of branching points (mean±SEM) and the differences between each mean value was tested by one way analysis of variance (ANOVA). Statistically p-value <0.05 was accepted.
To examine the effect of full-length human TFPI-2 on morphogenesis (capillary-like tube formation) of endothelial cells, HUVECs were seeded on the matrigel and treated with full-length human TFPI-2 (0.2 μM-5 μM).

In experiment [2] the test system is murine model of allergic asthma. Nature of the experiment: Murine model of allergic asthma (OVA-immunized B6D2F1 mice). As to conditions: lateral tail vein, days 11-14; vs vehicle treated mice. It counts as in vivo. On the procedure: B6D2F1 mice were immunized with ovalbumin (OVA) adsorbed to alum (days 0 and 5) and received two OVA aerosols on day 12. A subgroup of mice were treated with hexahistidine-tagged KD1, delivered via the lateral tail vein, on days 11-14. Mice were sacrificed on day 15 for the enumeration and differentiation of cells in the airway and lung tissue compartments.

For experiment [3], the system named is HT-1080 cells. Nature of the experiment: Western blot of cell extracts (Bax, Bcl-2, cleaved caspase-9, cleaved caspase-3). It counts as cell-based, human. To be noted: 1 μM, 48 hours; vs vehicle-treated cells. The method, then: Cell extracts were analyzed for the pro-apoptotic Bax, the anti-apoptotic Bcl-2, cleaved caspase-9 and cleaved caspase-3 by immunoblotting techniques. Approximately, 1×10^6 HT-1080 cells were grown to confluence in 6-well plates and treated with recombinant proteins and vehicle as described above. Both floating and adherent cells were harvested and washed twice with cold PBS. The cells were lysed by sonication in 500 μl of lysis buffer containing of 125 mM Tris-HCl (pH 6.8), 2% SDS, 10% glycerol, 50 mM sodium phosphate, 1 mM PMSF and protease inhibitor cocktail. The lysate was kept on ice for about 10 minutes, centrifuged for 15 minutes at 10,000×g at 4° C., and the supernatant recovered. The supernatants were boiled for 3 min and 50 μg of lysate protein subjected to SDS-PAGE in 4-20% polyacrylamide gradient gels. […] The nitrocellulose membranes were then probed with specific antibodies dissolved in fresh blocking buffer, and immunoreactive proteins were identified using HRP-conjugated secondary antibodies and a chemiluminescent reagent system essentially as described in Kempiah et al., Mol. Cancer, 6:20, 2007. Separate blots were treated with mouse monoclonal anti-α-tubulin antibody in order to verify equal loading of lysate proteins onto the gel.
(In general: A western blot detects proteins with antibodies after separation by electrophoresis.)

The subject of experiment [4] is HT-1080 cells. Nature of the experiment: Apoptosis detection by AO/EB staining. It counts as cell-based, human. To be noted: 1 μM, 48 h; approximately 5% in vehicle-treated cells. On the procedure: (§1) All cell lines were maintained in Dulbecco's minimal essential medium (DMEM), supplemented with heat-inactivated 10% fetal bovine serum and penicillin-streptomycin. The cells were cultured either in 6- or 12-well plates at 37° C. in a humidified atmosphere containing 6% CO2. At confluence, the cells were treated with fresh medium containing either wild-type TFPI-2, R24K KD1, or R24Q KD1. Cells were treated in duplicate with purified proteins at concentrations ranging from 0.5 μM to 10 μM for different time intervals. One set were also treated with PBS to serve as a control. The Limulus Amebocyte Lysate (LAL) assay was performed on each protein preparation to determine the presence of any endotoxin/LPS, and only trace amounts of endotoxin (<0.5 ng/L) were detected in each protein preparation.
Cells were grown to confluence in two-chamber culture slides containing 2 ml medium. For AO/EB staining, the cultures were treated with recombinant proteins as described above. […] Cells were viewed within 30 minutes of staining and counted using a Zeiss axiocam epifluorescence microscope (Carl Zeiss, Inc., Thornwood, N.Y.) equipped with a triple cube filter [DAPI/FITC/RITC]. […] Experiments were performed in triplicate, and a minimum of 100 total live and apoptotic cells were counted in each treatment.

For experiment [5], the system named is HT-1080 cells. Nature of the experiment: FACS analysis of apoptosis with annexin V/propidium iodide. It counts as cell-based, human. To be noted: 1 μM, 48 hours. The method, then: as §1
To assess the degree of apoptosis between the various treatments, cells were grown to confluence in 6 well plates and treated with either proteins or vehicle as described earlier. For annexin V staining, approximately 1.2×10^6 cells were harvested with PBS containing 1 mM EDTA and washed twice gently with cold PBS. The cells were suspended in 100 μl of cold binding buffer (10 mM Hepes (pH 7.4), 140 mM NaCl, 2.5 mM CaCl2), and subsequently incubated at room temperature in the dark for 25 minutes with 5 μl of FITC-conjugated annexin V and 10 μl of propidium iodide (50 μg/ml stock). The cells were then washed in 500 μl of binding buffer to remove unbound reagents, centrifuged at 900×g for 5 minutes, and resuspended in 1 ml of cold binding buffer. The labeled cells were then analyzed using a FACSCALIBUR flow cytometer (Becton Dickinson, San Jose, Calif.) and the data analyzed using […] software.
In general terms: Flow cytometry measures light scatter and fluorescence of single cells or particles in a stream.

Experiment [6] concerns the target factor VIIa-tissue factor complex (Homo sapiens, UniProt P08709). To be noted: relative to TFPI-2; cited from earlier work.
Experiment [7] has as its system trypsin. As to conditions: relative to TFPI-2; cited from earlier work.
For experiment [8], the target named is plasmin (Homo sapiens, UniProt P00747). To be noted: relative to TFPI-2; cited from earlier work.
plasmin, sequence (P00747 581-810 limits assumed, species assumed): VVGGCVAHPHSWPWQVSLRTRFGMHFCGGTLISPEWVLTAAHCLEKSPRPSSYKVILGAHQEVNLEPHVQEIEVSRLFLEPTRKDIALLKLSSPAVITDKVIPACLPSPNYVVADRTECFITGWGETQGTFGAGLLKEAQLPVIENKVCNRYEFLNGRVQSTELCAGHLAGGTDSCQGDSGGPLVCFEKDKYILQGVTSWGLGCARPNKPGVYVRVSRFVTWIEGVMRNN
plasmin, sequence (P00747 97-580 partner limits assumed, species assumed): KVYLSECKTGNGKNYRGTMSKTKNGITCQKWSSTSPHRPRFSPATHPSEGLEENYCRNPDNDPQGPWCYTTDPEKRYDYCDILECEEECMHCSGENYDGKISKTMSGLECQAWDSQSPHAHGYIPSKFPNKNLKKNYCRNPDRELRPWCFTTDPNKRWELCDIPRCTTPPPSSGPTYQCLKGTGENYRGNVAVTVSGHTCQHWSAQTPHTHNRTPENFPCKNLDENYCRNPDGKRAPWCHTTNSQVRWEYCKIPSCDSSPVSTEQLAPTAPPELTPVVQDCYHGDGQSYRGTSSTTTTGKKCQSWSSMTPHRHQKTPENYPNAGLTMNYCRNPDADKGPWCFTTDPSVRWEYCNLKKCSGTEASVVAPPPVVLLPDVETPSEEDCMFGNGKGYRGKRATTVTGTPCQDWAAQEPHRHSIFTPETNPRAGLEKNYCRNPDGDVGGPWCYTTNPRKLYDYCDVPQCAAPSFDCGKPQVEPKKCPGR

Consider 4 molecules from patent publication US7910550B2, “Human kunitz-type inhibitor with enhanced antifibrinolytic activity” (STC.UNM, priority 2004, dated 2011).

Residue numbers refer to the chain shown, from its start. In names and notes the source's numbering stands. Bounds are passed on as bounds.

factor VIIa-tissue factor complex, sequence (P08709 213-466 limits assumed): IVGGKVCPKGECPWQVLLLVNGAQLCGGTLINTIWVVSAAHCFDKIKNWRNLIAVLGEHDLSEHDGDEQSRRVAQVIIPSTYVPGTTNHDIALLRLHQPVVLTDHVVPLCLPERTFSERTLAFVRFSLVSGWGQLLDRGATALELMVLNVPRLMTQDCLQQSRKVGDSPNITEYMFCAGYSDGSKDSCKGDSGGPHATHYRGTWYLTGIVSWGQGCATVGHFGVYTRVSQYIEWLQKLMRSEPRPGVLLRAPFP
factor VIIa-tissue factor complex, sequence (P08709 61-212 partner limits assumed): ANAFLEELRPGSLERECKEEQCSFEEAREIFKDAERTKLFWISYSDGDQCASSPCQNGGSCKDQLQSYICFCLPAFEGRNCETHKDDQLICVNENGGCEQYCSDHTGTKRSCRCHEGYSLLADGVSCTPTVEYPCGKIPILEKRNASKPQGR
factor VIIa-tissue factor complex, sequence (P13726 33-295 partner): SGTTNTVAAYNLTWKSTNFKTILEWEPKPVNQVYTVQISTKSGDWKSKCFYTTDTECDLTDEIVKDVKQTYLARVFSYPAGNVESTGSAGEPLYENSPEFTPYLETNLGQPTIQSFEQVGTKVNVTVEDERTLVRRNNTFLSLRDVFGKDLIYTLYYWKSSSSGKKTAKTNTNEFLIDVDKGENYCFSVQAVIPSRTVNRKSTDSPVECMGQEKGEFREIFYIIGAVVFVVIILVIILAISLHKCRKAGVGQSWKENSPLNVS

As for VEGF [reference compound], the “time to first visible tube” value in experiment [1] (approximately 4 hours in the control) was ≤ 3 h. In experiment [1] (positive control, compared to control HUVECs), the “number of tube formation” value is “significant increase in number of tube formation”.

B1: KD1: the first Kunitz-type domain of human TFPI-2 (SEQ ID NO:2), recombinant, expressed in E. coli (protein, listed as Homo sapiens)
chain: DAAQEPTGNNAEICLLPLDYGPCRALLLRYYYDRYTQSCRQFLYGGCEGNANNFYTWEACDDACWRIEKVPKV
In the case of B1, the “inhibition of angiogenesis (capillary-like tube formation)” value in experiment [1] (HUVECs on matrix) is listed as “does not inhibit angiogenesis”. Moreover, in experiment [2], the “cells, macrophages and lymphocytes recoverable from the airways” value was “significant decrease in the number of airway macrophages and lymphocytes”.

B2: R24Q KD1: KD1 point mutant, arginine 24 to glutamine; lacks reactive site arginine/lysine residue (protein)
chain: B1 chain with R24Q
modifications: left off: small tags and cut ends
Consider B2, for which, in experiment [3], the “activated caspase 9 and activated caspase 3 (immunoblot)” value was “levels were significantly lower than that observed with TFPI-2 or R24K KD1”. The “apoptotic cells (AO/EB staining)” value in experiment [4] was 18%. In experiment [5] (vehicle 4%), the “cells in a late apoptotic stage (annexin V and PI positive)” value is reported as ~15%. Also, the “early apoptotic cells (annexin V-FITC positive)” value in experiment [5] (vehicle 16%) stood at 55%.

B3: R24Q TFPI-2: full-length TFPI-2 mutant, P1 arginine R24 to glutamine; inactive mutant (protein)
chain: DAAQEPTGNNAEICLLPLDYGPCQALLLRYYYDRYTQSCRQFLYGGCEGNANNFYTWEACDDACWRIEKVPKVCRLQVSVDDQCEGSTEKYFFNLSSMTCEKFFSGGCHRNRIENRFPDEATCMGFCAPKKIPSFCYSPKDEGLCSANVTRYYFNPRYRTCDAFTYTGCGGNDNNFVSREDCKRACAKALKKKKKMPKLRFASRIRKIRKKQF
In the case of B3, in experiment [6], the “inhibitory activity toward factor VIIa-tissue factor complex” value is given as 5-10% and the “lost inhibitory activity towards factor VIIa-tissue factor complex” value is recorded as > 90%. Also, in experiment [7], the “inhibitory activity toward trypsin” value is given as 5-10% and the “lost inhibitory activity towards trypsin” value is > 90%. In addition, in experiment [8], the “inhibitory activity toward plasmin” value is 5-10% and the “lost inhibitory activity towards plasmin” value is > 90%.
